Here are results for two proteins from patent US20160024487.

Data set [1] concerns the target T1, Lys(Dnp)-ATNATAFPRIVGG-Lys(Abz).
T1 chain: KATNATAFPRIVGGK

Data set [2] has as its target T2, Lys(Dnp)-ATNATAKPRIVGG-Lys(Abz).
T2 chain: KATNATAKPRIVGGK

The target in data set [3] is T3, Lys(Dnp)-ATNATFKPRIVGG-Lys(Abz).
T3 chain: KATNATFKPRIVGGK

For data set [4], the target named is T4, Lys(Dnp)-ATNATFMPRIVGG-Lys(Abz).
T4 chain: KATNATFMPRIVGGK

For data set [5], the target named is T5, Lys(Dnp)-ATNATIFPRIVGG-Lys(Abz).
T5 chain: KATNATIFPRIVGGK

In data set [6] the target is T6, Lys(Dnp)-ATNATIMPRIVGG-Lys(Abz).
T6 chain: KATNATIMPRIVGGK

For data set [7], the target named is T7, Lys(Dnp)-ATNATLAPRIVGG-Lys(Abz).
T7 chain: KATNATLAPRIVGGK

The target of data set [8] is T8, Lys(Dnp)-ATNATLFPRIVGG-Lys(Abz).
T8 chain: KATNATLFPRIVGGK

For data set [9], the target named is T9, Lys(Dnp)-ATNATLIPRIVGG-Lys(Abz).
T9 chain: KATNATLIPRIVGGK

The target in data set [10] is T10, Lys(Dnp)-ATNATLMPRIVGG-Lys(Abz).
T10 chain: KATNATLMPRIVGGK

Data set [11] concerns the target T11, Lys(Dnp)-ATNATLRPRIVGG-Lys(Abz).
T11 chain: KATNATLRPRIVGGK

Data set [12] deals with T12, Lys(Dnp)-ATNATLWPRIVGG-Lys(Abz).
T12 chain: KATNATLWPRIVGGK

For data set [13], the target named is T13, Lys(Dnp)-ATNATLYPRIVGG-Lys(Abz).
T13 chain: KATNATLYPRIVGGK

In data set [14] the target is T14, Lys(Dnp)-ATNATMGPRIVGG-Lys(Abz).
T14 chain: KATNATMGPRIVGGK

The target of data set [15] is T15, Lys(Dnp)-ATNATMVPRIVGG-Lys(Abz).
T15 chain: KATNATMVPRIVGGK

Data set [16] deals with T16, Lys(Dnp)-ATNATVQPRIVGG-Lys(Abz).
T16 chain: KATNATVQPRIVGGK

For data set [17], the target named is T17, Lys(Dnp)-ATNATWGPRIVGG-Lys(Abz).
T17 chain: KATNATWGPRIVGGK

For data set [18], the target named is T18, Lys(Dnp)-ATNATWKPRIVGG-Lys(Abz).
T18 chain: KATNATWKPRIVGGK

Data set [19] deals with T19, Lys(Dnp)-ATNATWRPRIVGG-Lys(Abz).
T19 chain: KATNATWRPRIVGGK

The target of data set [20] is T20, Lys(Dnp)-ATNATADPRIVGG-Lys(Abz).
T20 chain: KATNATADPRIVGGK

Data set [21] concerns the target T21, Lys(Dnp)-ATNATALPRIVGG-Lys(Abz).
T21 chain: KATNATALPRIVGGK

In data set [22] the target is T22, Lys(Dnp)-ATNATAQPRIVGG-Lys(Abz).
T22 chain: KATNATAQPRIVGGK

The target of data set [23] is T23, Lys(Dnp)-ATNATDRPRIVGG-Lys(Abz).
T23 chain: KATNATDRPRIVGGK

Data set [24] deals with T24, Lys(Dnp)-ATNATERPRIVGG-Lys(Abz).
T24 chain: KATNATERPRIVGGK

Data set [25] addresses T25, Lys(Dnp)-ATNATFAPRIVGG-Lys(Abz).
T25 chain: KATNATFAPRIVGGK

In data set [26] the target is T26, Lys(Dnp)-ATNATFLPRIVGG-Lys(Abz).
T26 chain: KATNATFLPRIVGGK

Data set [27] has as its target T27, Lys(Dnp)-ATNATGEPRIVGG-Lys(Abz).
T27 chain: KATNATGEPRIVGGK

Data set [28] addresses T28, Lys(Dnp)-ATNATHMPRIVGG-Lys(Abz).
T28 chain: KATNATHMPRIVGGK

For data set [29], the target named is T29, Lys(Dnp)-ATNATHPPRIVGG-Lys(Abz).
T29 chain: KATNATHPPRIVGGK

The target of data set [30] is T30, Lys(Dnp)-ATNATISPRIVGG-Lys(Abz).
T30 chain: KATNATISPRIVGGK

Data set [31] deals with T31, Lys(Dnp)-ATNATKLPRIVGG-Lys(Abz).
T31 chain: KATNATKLPRIVGGK

The target in data set [32] is T32, Lys(Dnp)-ATNATMDPRIVGG-Lys(Abz).
T32 chain: KATNATMDPRIVGGK

For data set [33], the target named is T33, Lys(Dnp)-ATNATMPPRIVGG-Lys(Abz).
T33 chain: KATNATMPPRIVGGK

Data set [34] addresses T34, Lys(Dnp)-ATNATMWPRIVGG-Lys(Abz).
T34 chain: KATNATMWPRIVGGK

The target in data set [35] is T35, Lys(Dnp)-ATNATQNPRIVGG-Lys(Abz).
T35 chain: KATNATQNPRIVGGK

For data set [36], the target named is T36, Lys(Dnp)-ATNATRIPRIVGG-Lys(Abz).
T36 chain: KATNATRIPRIVGGK

The target in data set [37] is T37, Lys(Dnp)-ATNATRMPRIVGG-Lys(Abz).
T37 chain: KATNATRMPRIVGGK

Data set [38] deals with T38, Lys(Dnp)-ATNATRWPRIVGG-Lys(Abz).
T38 chain: KATNATRWPRIVGGK

In data set [39] the target is T39, Lys(Dnp)-ATNATSNPRIVGG-Lys(Abz).
T39 chain: KATNATSNPRIVGGK

Data set [40] deals with T40, Lys(Dnp)-ATNATTLPRIVGG-Lys(Abz).
T40 chain: KATNATTLPRIVGGK

The target in data set [41] is T41, Lys(Dnp)-ATNATWVPRIVGG-Lys(Abz).
T41 chain: KATNATWVPRIVGGK

B1: Human plasma purified Factor Xa (protein)
chain 1: ANSFLEEMKKGHLERECMEETCSYEEAREVFEDSDKTNEFWNKYKDGDQCETSPCQNQGKCKDGLGEYTCTCLEGFEGKNCELFTRKLCSLDNGDCDQFCHEEQNSVVCSCARGYTLADNGKACIPTGPYPCGKQTLER
chain 2: IVGGQECKDGECPWQALLINEENEGFCGGTILSEFYILTAAHCLYQAKRFKVRVGDRNTEQEEGGEAVHEVEVVIKHNRFTKETYDFDIAVLRLKTPITFRMNVAPACLPERDWAESTLMTQKTGIVSGFGRTHEKGRQSTRLKMLEVPYVDRNSCKLSSSFIITQNMFCAGYDTKQEDACQGDSGGPHVTRFKDTYFVTGIVSWGEGCARKGKYGIYTKVTAFLKWIDRSMKTRGLPKAKSHAPEVITSSPLK
Regarding B1, the FXa kcat/KM in [1] stood at 22 M⁻¹ s⁻¹; in data set [2] it was 30 M⁻¹ s⁻¹; in data set [3], 55 M⁻¹ s⁻¹; in data set [4], 840 M⁻¹ s⁻¹; in data set [5] it was 130 M⁻¹ s⁻¹; in data set [6], 2100 M⁻¹ s⁻¹. In addition, the FXa kcat/KM in [7] amounted to 230 M⁻¹ s⁻¹; in [8] it was 99 M⁻¹ s⁻¹; in data set [9], 420 M⁻¹ s⁻¹; in data set [10], 2700 M⁻¹ s⁻¹; in [11], 610 M⁻¹ s⁻¹; in [12], 1000 M⁻¹ s⁻¹. Also, the FXa kcat/KM in data set [13] was 160 M⁻¹ s⁻¹; in [14], 54 M⁻¹ s⁻¹; in data set [15] it was 100 M⁻¹ s⁻¹; in data set [16], 250 M⁻¹ s⁻¹; in [17], 61 M⁻¹ s⁻¹; in [18], 41 M⁻¹ s⁻¹. The FXa kcat/KM in data set [19] was 800 M⁻¹ s⁻¹.

B2: Human plasma purified Factor Xa (Molecular Innovations, Inc) (protein)
chain 1: ANSFLEEMKKGHLERECMEETCSYEEAREVFEDSDKTNEFWNKYKDGDQCETSPCQNQGKCKDGLGEYTCTCLEGFEGKNCELFTRKLCSLDNGDCDQFCHEEQNSVVCSCARGYTLADNGKACIPTGPYPCGKQTLER
chain 2: IVGGQECKDGECPWQALLINEENEGFCGGTILSEFYILTAAHCLYQAKRFKVRVGDRNTEQEEGGEAVHEVEVVIKHNRFTKETYDFDIAVLRLKTPITFRMNVAPACLPERDWAESTLMTQKTGIVSGFGRTHEKGRQSTRLKMLEVPYVDRNSCKLSSSFIITQNMFCAGYDTKQEDACQGDSGGPHVTRFKDTYFVTGIVSWGEGCARKGKYGIYTKVTAFLKWIDRSMKTRGLPKAKSHAPEVITSSPLK
Turning to B2, the FXa kcat/KM in data set [20] is 56 M⁻¹ s⁻¹; in data set [21], 300 M⁻¹ s⁻¹; in [22], 460 M⁻¹ s⁻¹; in [23], 190 M⁻¹ s⁻¹; in data set [24], 300 M⁻¹ s⁻¹; in data set [25], 130 M⁻¹ s⁻¹. In addition, the FXa kcat/KM in data set [26] worked out at 530 M⁻¹ s⁻¹; in data set [27], 87 M⁻¹ s⁻¹; in data set [28], 270 M⁻¹ s⁻¹; in data set [29], 7 M⁻¹ s⁻¹; in [30], 610 M⁻¹ s⁻¹; in data set [31] it was 89 M⁻¹ s⁻¹. In addition, the FXa kcat/KM in [32] was 500 M⁻¹ s⁻¹; in data set [33] it was 4.1 M⁻¹ s⁻¹; in [34], 630 M⁻¹ s⁻¹; in [35] it was 610 M⁻¹ s⁻¹; in [36], 700 M⁻¹ s⁻¹; in data set [37], 4600 M⁻¹ s⁻¹. Also, the FXa kcat/KM in data set [38] was 3000 M⁻¹ s⁻¹; in data set [39] it was 24 M⁻¹ s⁻¹; in [40], 140 M⁻¹ s⁻¹; in [41], 86 M⁻¹ s⁻¹.
